Experimental findings from patent US20130045219A1 (UCB, published 2013) are described below.

For test [1], the target named is T1, soluble human CD154 protein (extracellular domain) (human, UniProt P29965 116-261).
T1 construct: also called sCD154; recombinant extracellular domain of human CD154
T1 sequence: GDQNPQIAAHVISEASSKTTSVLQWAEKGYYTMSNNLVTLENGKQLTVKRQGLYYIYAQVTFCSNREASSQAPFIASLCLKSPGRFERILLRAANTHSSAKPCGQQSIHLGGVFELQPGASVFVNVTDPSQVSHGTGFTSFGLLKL
Kind of test: Biacore (SPR): antibody or fragment captured on immobilized anti-human IgG (Fc- or Fab'-specific) F(ab')2, recombinant extracellular domain of human CD154 titrated over it (Example 4). The procedure:
Catalogue Number: BR-1001-88, Biacore AB, Uppsala, Sweden. Buffer stored at 4° C. Immobilization buffer is Acetate 5.0 (being 10 mM sodium acetate pH 5.0). Catalogue number: BR-1003-51, Biacore AB, Uppsala, Sweden. Buffer stored at 4° C. Ligand capture: Affinipure F(ab′)₂ fragment goat anti-human IgG, Fab′ fragment specific (Catalogue number: 109-006-097) or Fc fragment specific (Catalogue number: 109-006-098), Jackson ImmunoResearch Inc (Pennsylvania, USA). Reagents stored at 4° C. […] Analyte: Recombinant extracellular domain of human CD154. Material was prepared at 2 mg/mL (40 μM) in phosphate-buffered saline, stored at 4° C., and diluted in HBE-EP running buffer for the assays. […] Regeneration Solution: 40 mM HCl prepared by dilution with distilled water from an 11.6 M stock solution (BDH, Poole, England. Catalogue number: 101254H). 5 mM NaOH prepared by dilution with distilled water from a 50 mM stock solution. Catalogue number: BR-1003-58, Biacore AB, Uppsala, Sweden. Assay Method: BIA (Biamolecular Interaction Analysis) was performed using a Biacore® 3000 (Biacore AB). Affinipure F(ab′)₂ fragment goat anti-human IgG, Fc- or Fab′-fragment specific (Jackson ImmunoResearch) were immobilized on a CM5 Sensor Chip via amine coupling chemistry to a capture level of ≈6000 response units (RUs). HBS-EP buffer (10 mM HEPES pH 7.4, 0.15 M NaCl, 3 mM EDTA, 0.005% Surfactant P20, Biacore AB) was used as the running buffer with a flow rate of 10 μl/min. Anti-CD154 antibodies or Fab fragments were used at concentrations such that, once captured by the immobilized anti-human IgG-Fc (or anti-human IgG Fab′) surface, gave a signal of ≈200 RUs. Human CD154 was titrated over the captured antibody, at various concentrations. 90 μL of CD154 was injected over the surface (association phase), followed by a 240 second dissociation phase, all at a flow rate of 30 μl/min. […] Background subtraction binding curves were analyzed using the BIAevaluation software (version 3.2) following standard procedures. Kinetic parameters were determined from the fitting algorithm.

The target in test [2] is T2, CD154 expressed on D1.1 Jurkat cells (UniProt P29965 1-261, limits assumed).
T2 sequence (looked up): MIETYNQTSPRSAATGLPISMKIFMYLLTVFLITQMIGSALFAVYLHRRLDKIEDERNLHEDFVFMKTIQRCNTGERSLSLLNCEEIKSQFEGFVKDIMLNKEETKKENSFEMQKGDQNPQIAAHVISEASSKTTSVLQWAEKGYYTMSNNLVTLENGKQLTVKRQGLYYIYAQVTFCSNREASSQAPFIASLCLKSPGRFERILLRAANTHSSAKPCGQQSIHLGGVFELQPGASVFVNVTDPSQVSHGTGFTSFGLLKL
Kind of test: cell-based or functional assay.

Test [3] concerns the target T2, CD154 expressed on D1.1 Jurkat cells. Kind of test: flow cytometry: inhibition of the binding of hCD40-mFc-PE to CD154-expressing D1.1 Jurkat cells by serially diluted antibody (Example 5). On the procedure: A flow cytometry-based assay was used to assess the binding of labeled CD40 to CD154-expressing D1.1 cells. D1.1 Jurkat cells (American Type Culture Collection) were maintained in RPMI 1640 medium (Gibco, 31870-025)) containing 10% (v/v) fetal calf serum (FCS), 2 mM glutamine (Invitrogen, 23030024), 1 mM sodium pyruvate (Invitrogen, 11360-039), 1% (v/v) D-(+)-glucose (Sigma, G8769) & 10 mM HEPES (Sigma, H0887). At time of assay, 100,000 D1.1 cells were incubated in 100 μL RPMI 1640 medium+10% FCS, in the presence or absence of serially diluted anti-CD154 antibody for 15 minutes at room temperature. 5 μL of a 1:75 dilution of hCD40-mFc-PE (Alexis Corp, ANC-504-050) was then added and incubated for a further 30 minutes at room temperature. After washing twice in phosphate-buffered saline (PBS) containing 1% (w/v) bovine serum albumin (BSA fraction V, Serologicals Proteins Inc, 81-068-5) and 0.02% (w/v) sodium azide (BDH, 103692K), cells were resuspended in 200 μL PBS/1% BSA/0.02% sodium azide and flow cytometry performed on a Becton Dickinson FACScan. The values for geometric mean fluorescence (FL2) were assessed in all cases.

Test [4] shares this target. The experiment in a line: flow cytometry competition binding assay: serially diluted antibody against biotinylated 342 Fab on CD154-expressing D1.1 Jurkat cells, streptavidin-R-phycoerythrin detection (Example 6). The procedure:
A flow cytometry-based assay was used to assess the binding of anti-CD154 antibody to CD154-expressing D1.1 cells. D1.1 Jurkat cells (American Type Culture Collection) were maintained in RPMI 1640 medium (Gibco, 31870-025) containing 10% (v/v) fetal calf serum (FCS), 2 mM glutamine (BioWhittaker, 17-605E) and […] (Mediatech, 30002107). […] The cells were washed three times in FACS buffer with centrifugation at 290×g for 3 minutes in between washes. A 1:500 dilution of streptavadin-R-phycoerythrin conjugate (Jackson Immunoresearch, 016-110-084) in […] FACS buffer was added and the cells were incubated for one hour at 4° C. The cells were washed once and fixed in PBS with 3% formaldehyde at room temperature for 10 minutes. The cells were resuspended in FACS buffer and run on a FacsCalibur (BD). The values for geometric mean fluorescence (FL2) were assessed in all cases.

B1: 342 Fab'-PEG (Fab, V domains shown)
VH: EVQLVESGGGLVQPGGSLRLSCAVSGFSSTNYHVHWVRQAPGKGLEWMGVIWGDGDTSYNSVLKSRFTISRDTSKNTVYLQMNSLRAEDTAVYYCARQLTHYYVLAAWGQGTLVTVSS
VL: DIQMTQSPSSLSASVGDRVTITCRASEDLYYNLAWYQRKPGKAPKLLIYDTYRLADGVPSRFSGSGSGTDYTLTISSLQPEDFASYYCQQYYKFPFTFGQGTKVEIKR
modifications: PEG-maleimide on the single cysteine at the hinge
As to B1, in test [1], the Kd was determined as 0.05 nM. In test [2], the “IC50 of inhibition of ICAM-1 (CD54) upregulation on CD40-expressing Ramos B cells co-cultured with CD154-expressing D1.1 Jurkat cells” value is 0.127 µg/mL. Further, the IC50 in test [3] worked out at 0.035 µg/mL; in test [4], 0.113 nM.

B2: 342 aglycosyl IgG4 (antibody, V domains shown)
VH: EVQLVESGGGLVQPGGSLRLSCAVSGFSSTNYHVHWVRQAPGKGLEWMGVIWGDGDTSYNSVLKSRFTISRDTSKNTVYLQMNSLRAEDTAVYYCARQLTHYYVLAAWGQGTLVTVSS
VL: DIQMTQSPSSLSASVGDRVTITCRASEDLYYNLAWYQRKPGKAPKLLIYDTYRLADGVPSRFSGSGSGTDYTLTISSLQPEDFASYYCQQYYKFPFTFGQGTKVEIKR
modifications: S228P and T299A (Kabat EU) are contained in SEQ ID NO: 72; not N-glycosylated
notes: also called aglycosylated hu342; hu342 aglyP-huIgG4
For B2, the “IC50 of inhibition of ICAM-1 (CD54) upregulation on CD40-expressing Ramos B cells co-cultured with CD154-expressing D1.1 Jurkat cells” value in test [2] came out at 0.048 µg/mL. Also, the values for the IC50 in test [3] and in test [4] were 0.025 µg/mL and 0.035 nM, respectively.

B3: 342 Di-Fab' (other)
heavy chain (Fab'): EVQLVESGGGLVQPGGSLRLSCAVSGFSSTNYHVHWVRQAPGKGLEWMGVIWGDGDTSYNSVLKSRFTISRDTSKNTVYLQMNSLRAEDTAVYYCARQLTHYYVLAAWGQGTLVTVSSASTKGPSVFPLAPSSKSTSGGTAALGCLVKDYFPEPVTVSWNSGALTSGVHTFPAVLQSSGLYSLSSVVTVPSSSLGTQTYICNVNHKPSNTKVDKKVEPKSCDKTHTCAA
light chain: DIQMTQSPSSLSASVGDRVTITCRASEDLYYNLAWYQRKPGKAPKLLIYDTYRLADGVPSRFSGSGSGTDYTLTISSLQPEDFASYYCQQYYKFPFTFGQGTKVEIKRTVAAPSVFIFPPSDEQLKSGTASVVCLLNNFYPREAKVQWKVDNALQSGNSQESVTEQDSKDSTYSLSSTLTLSKADYEKHKVYACEVTHQGLSSPVTKSFNRGEC
modifications: the two Fab' are cross-linked at the hinge; the linker is not described for this molecule
Regarding B3, the “IC50 of inhibition of ICAM-1 (CD54) upregulation on CD40-expressing Ramos B cells co-cultured with CD154-expressing D1.1 Jurkat cells” value in test [2] was 0.022 µg/mL. In test [3], this molecule yielded an IC50 of 0.009 µg/mL.

B4: 342 Di-Fab'-PEG (other)
heavy chain (Fab'): EVQLVESGGGLVQPGGSLRLSCAVSGFSSTNYHVHWVRQAPGKGLEWMGVIWGDGDTSYNSVLKSRFTISRDTSKNTVYLQMNSLRAEDTAVYYCARQLTHYYVLAAWGQGTLVTVSSASTKGPSVFPLAPSSKSTSGGTAALGCLVKDYFPEPVTVSWNSGALTSGVHTFPAVLQSSGLYSLSSVVTVPSSSLGTQTYICNVNHKPSNTKVDKKVEPKSCDKTHTCAA
light chain: DIQMTQSPSSLSASVGDRVTITCRASEDLYYNLAWYQRKPGKAPKLLIYDTYRLADGVPSRFSGSGSGTDYTLTISSLQPEDFASYYCQQYYKFPFTFGQGTKVEIKRTVAAPSVFIFPPSDEQLKSGTASVVCLLNNFYPREAKVQWKVDNALQSGNSQESVTEQDSKDSTYSLSSTLTLSKADYEKHKVYACEVTHQGLSSPVTKSFNRGEC
modifications: the two Fab' are cross-linked and PEGylated; paragraph 96 describes DFM-PEG as two Fab' cross-linked with a PEGylated dimaleimide bridge
For B4, the Kd in test [1] is 0.045 nM. Further, the “IC50 of inhibition of ICAM-1 (CD54) upregulation on CD40-expressing Ramos B cells co-cultured with CD154-expressing D1.1 Jurkat cells” value in test [2] was found to be 0.058 µg/mL. Besides, the values for the half-inhibitory concentration (IC50) in test [3] and in test [4] were 0.032 µg/mL and 0.026 nM, respectively.

B5: 342 Tri-Fab'-PEG (other)
heavy chain (Fab'): EVQLVESGGGLVQPGGSLRLSCAVSGFSSTNYHVHWVRQAPGKGLEWMGVIWGDGDTSYNSVLKSRFTISRDTSKNTVYLQMNSLRAEDTAVYYCARQLTHYYVLAAWGQGTLVTVSSASTKGPSVFPLAPSSKSTSGGTAALGCLVKDYFPEPVTVSWNSGALTSGVHTFPAVLQSSGLYSLSSVVTVPSSSLGTQTYICNVNHKPSNTKVDKKVEPKSCDKTHTCAA
light chain: DIQMTQSPSSLSASVGDRVTITCRASEDLYYNLAWYQRKPGKAPKLLIYDTYRLADGVPSRFSGSGSGTDYTLTISSLQPEDFASYYCQQYYKFPFTFGQGTKVEIKRTVAAPSVFIFPPSDEQLKSGTASVVCLLNNFYPREAKVQWKVDNALQSGNSQESVTEQDSKDSTYSLSSTLTLSKADYEKHKVYACEVTHQGLSSPVTKSFNRGEC
modifications: the three Fab' are cross-linked and PEGylated; the chemistry is not described
For the molecule B5, the “IC50 of inhibition of ICAM-1 (CD54) upregulation on CD40-expressing Ramos B cells co-cultured with CD154-expressing D1.1 Jurkat cells” value in test [2] was 0.036 µg/mL. This molecule also had a half-inhibitory concentration (IC50) in test [3] of 0.008 µg/mL.

B6: 342 Tri-Fab' (other)
heavy chain (Fab'): EVQLVESGGGLVQPGGSLRLSCAVSGFSSTNYHVHWVRQAPGKGLEWMGVIWGDGDTSYNSVLKSRFTISRDTSKNTVYLQMNSLRAEDTAVYYCARQLTHYYVLAAWGQGTLVTVSSASTKGPSVFPLAPSSKSTSGGTAALGCLVKDYFPEPVTVSWNSGALTSGVHTFPAVLQSSGLYSLSSVVTVPSSSLGTQTYICNVNHKPSNTKVDKKVEPKSCDKTHTCAA
light chain: DIQMTQSPSSLSASVGDRVTITCRASEDLYYNLAWYQRKPGKAPKLLIYDTYRLADGVPSRFSGSGSGTDYTLTISSLQPEDFASYYCQQYYKFPFTFGQGTKVEIKRTVAAPSVFIFPPSDEQLKSGTASVVCLLNNFYPREAKVQWKVDNALQSGNSQESVTEQDSKDSTYSLSSTLTLSKADYEKHKVYACEVTHQGLSSPVTKSFNRGEC
modifications: the three Fab' are cross-linked at the hinge; the linker is not described
With B6, the “IC50 of inhibition of ICAM-1 (CD54) upregulation on CD40-expressing Ramos B cells co-cultured with CD154-expressing D1.1 Jurkat cells” value in test [2] turned out to be 0.031 µg/mL. In test [3], this molecule yielded an IC50 of 0.009 µg/mL.
